# Reference: the supplement of paper PMC9112550, “Optimization of the antimicrobial peptide Bac7 by deep mutational scanning” (BMC Biology, 2022)
# Test system: Escherichia coli TOP10
# Experiment: shrunken log2 fold change of peptide-encoding DNA abundance (4.5 h post-induction vs induction); higher = less antimicrobial activity (less host growth inhibition)
# Conditions: time post-induction: 4.5 h; library: site-saturation at positions 5, 18, 19, 20
# 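Further: peptides expressed intracellularly from a pBAD plasmid library in pooled LB shake-flask culture, induced with 0.3% L-arabinose, DNA abundance read by NGS, three biological replicates, DESeq2 with apeglm shrinkage.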
row,Sequence,shrunken log2 fold change
1,RRIRVRPPRLPRPRPRPSEGPRP,-0.116
2,RRIRVRPPRLPRPRPRPSEPPRP,-0.11
3,RRIRVRPPRLPRPRPRPSEYPRP,-0.418
4,RRIRVRPPRLPRPRPRPSFEPRP,-0.214
5,RRIRVRPPRLPRPRPRPSFRPRP,-0.42
6,RRIRVRPPRLPRPRPRPSGMPRP,0.489
7,RRIRVRPPRLPRPRPRPSHCPRP,0.109
8,RRIRVRPPRLPRPRPRPSHWPRP,0.182
9,RRIRVRPPRLPRPRPRPSKCPRP,-0.0461
10,RRIRVRPPRLPRPRPRPSMRPRP,0.477
11,RRIRVRPPRLPRPRPRPSMVPRP,-0.475
12,RRIRVRPPRLPRPRPRPSNAPRP,0.111
13,RRIRVRPPRLPRPRPRPSPCPRP,-0.145
14,RRIRVRPPRLPRPRPRPSPTPRP,0.0219
15,RRIRVRPPRLPRPRPRPSPWPRP,0.021
16,RRIRVRPPRLPRPRPRPSPYPRP,-0.409
17,RRIRVRPPRLPRPRPRPSSGPRP,-0.39
18,RRIRVRPPRLPRPRPRPSTIPRP,-0.136
19,RRIRVRPPRLPRPRPRPSVQPRP,-0.0929
20,RRIRVRPPRLPRPRPRPSWQPRP,-0.251
21,RRIRVRPPRLPRPRPRPSYKPRP,-0.581
22,RRIRVRPPRLPRPRPRPSYVPRP,-0.66

row,Sequence,shrunken log2 fold change
1,RRIRVRPPRLPRPRPRPSYYPRP,-0.674
2,RRIRVRPPRLPRPRPRPTCHPRP,-0.0606
3,RRIRVRPPRLPRPRPRPTCQPRP,-0.035
4,RRIRVRPPRLPRPRPRPTDAPRP,0.0111
5,RRIRVRPPRLPRPRPRPTEHPRP,-0.0827
6,RRIRVRPPRLPRPRPRPTFPPRP,0.0553
7,RRIRVRPPRLPRPRPRPTGTPRP,0.699
8,RRIRVRPPRLPRPRPRPTHCPRP,0.233
9,RRIRVRPPRLPRPRPRPTHYPRP,-0.0832
10,RRIRVRPPRLPRPRPRPTMAPRP,0.235
11,RRIRVRPPRLPRPRPRPTMEPRP,-0.102
12,RRIRVRPPRLPRPRPRPTPEPRP,0.639
13,RRIRVRPPRLPRPRPRPTPYPRP,-0.0655
14,RRIRVRPPRLPRPRPRPTQPPRP,-0.0625
15,RRIRVRPPRLPRPRPRPTRCPRP,0.404
16,RRIRVRPPRLPRPRPRPTREPRP,0.59
17,RRIRVRPPRLPRPRPRPTSAPRP,0.0866
18,RRIRVRPPRLPRPRPRPTSYPRP,-0.45
19,RRIRVRPPRLPRPRPRPTTGPRP,0.141
20,RRIRVRPPRLPRPRPRPTWDPRP,0.178
21,RRIRVRPPRLPRPRPRPTWGPRP,0.436
22,RRIRVRPPRLPRPRPRPTWLPRP,0.318

row,Sequence,shrunken log2 fold change
1,RRIRVRPPRLPRPRPRPVANPRP,-0.0212
2,RRIRVRPPRLPRPRPRPVCHPRP,-0.29
3,RRIRVRPPRLPRPRPRPVCIPRP,-0.0826
4,RRIRVRPPRLPRPRPRPVCSPRP,-0.11
5,RRIRVRPPRLPRPRPRPVFYPRP,-0.178
6,RRIRVRPPRLPRPRPRPVGFPRP,0.158
7,RRIRVRPPRLPRPRPRPVHEPRP,-0.104
8,RRIRVRPPRLPRPRPRPVHGPRP,-0.0285
9,RRIRVRPPRLPRPRPRPVHTPRP,-0.0364
10,RRIRVRPPRLPRPRPRPVIYPRP,-0.39
11,RRIRVRPPRLPRPRPRPVKGPRP,-0.0226
12,RRIRVRPPRLPRPRPRPVKTPRP,-0.11
13,RRIRVRPPRLPRPRPRPVMLPRP,-0.0602
14,RRIRVRPPRLPRPRPRPVMSPRP,-0.213
15,RRIRVRPPRLPRPRPRPVNYPRP,0.0937
16,RRIRVRPPRLPRPRPRPVQDPRP,0.0752
17,RRIRVRPPRLPRPRPRPVRAPRP,0.616
18,RRIRVRPPRLPRPRPRPVSEPRP,0.155
19,RRIRVRPPRLPRPRPRPVTTPRP,0.126
20,RRIRVRPPRLPRPRPRPVTVPRP,-0.0359
21,RRIRVRPPRLPRPRPRPVVAPRP,0.17
22,RRIRVRPPRLPRPRPRPVVFPRP,0.00477

row,Sequence,shrunken log2 fold change
1,RRIRVRPPRLPRPRPRPVWVPRP,-0.123
2,RRIRVRPPRLPRPRPRPVWYPRP,-0.154
3,RRIRVRPPRLPRPRPRPVYGPRP,-0.167
4,RRIRVRPPRLPRPRPRPWAGPRP,0.116
5,RRIRVRPPRLPRPRPRPWAIPRP,-0.0122
6,RRIRVRPPRLPRPRPRPWCSPRP,-0.638
7,RRIRVRPPRLPRPRPRPWDKPRP,-0.0363
8,RRIRVRPPRLPRPRPRPWENPRP,-0.0208
9,RRIRVRPPRLPRPRPRPWFHPRP,-0.711
10,RRIRVRPPRLPRPRPRPWFRPRP,-0.304
11,RRIRVRPPRLPRPRPRPWGFPRP,0.0189
12,RRIRVRPPRLPRPRPRPWHFPRP,-0.0232
13,RRIRVRPPRLPRPRPRPWIWPRP,0.00605
14,RRIRVRPPRLPRPRPRPWNCPRP,0.0131
15,RRIRVRPPRLPRPRPRPWNEPRP,-0.0886
16,RRIRVRPPRLPRPRPRPWPSPRP,0.143
17,RRIRVRPPRLPRPRPRPWSWPRP,0.15
18,RRIRVRPPRLPRPRPRPWTKPRP,-0.106
19,RRIRVRPPRLPRPRPRPWTMPRP,-0.134
20,RRIRVRPPRLPRPRPRPWTWPRP,-0.135
21,RRIRVRPPRLPRPRPRPWVKPRP,-0.235
22,RRIRVRPPRLPRPRPRPWVNPRP,0.0119

row,Sequence,shrunken log2 fold change
1,RRIRVRPPRLPRPRPRPWVYPRP,-0.137
2,RRIRVRPPRLPRPRPRPWWNPRP,-0.0063
3,RRIRVRPPRLPRPRPRPWYGPRP,-0.367
4,RRIRVRPPRLPRPRPRPWYPPRP,-0.884
5,RRIRVRPPRLPRPRPRPYAWPRP,0.0346
6,RRIRVRPPRLPRPRPRPYCEPRP,-0.0433
7,RRIRVRPPRLPRPRPRPYCVPRP,-0.125
8,RRIRVRPPRLPRPRPRPYDEPRP,-0.0163
9,RRIRVRPPRLPRPRPRPYFCPRP,-0.483
10,RRIRVRPPRLPRPRPRPYFLPRP,-0.149
11,RRIRVRPPRLPRPRPRPYGEPRP,-0.204
12,RRIRVRPPRLPRPRPRPYHFPRP,-0.111
13,RRIRVRPPRLPRPRPRPYHRPRP,-2.18
14,RRIRVRPPRLPRPRPRPYIDPRP,-0.372
15,RRIRVRPPRLPRPRPRPYILPRP,-0.278
16,RRIRVRPPRLPRPRPRPYKLPRP,-0.745
17,RRIRVRPPRLPRPRPRPYMMPRP,-0.00989
18,RRIRVRPPRLPRPRPRPYQKPRP,-0.0384
19,RRIRVRPPRLPRPRPRPYRLPRP,0.0399
20,RRIRVRPPRLPRPRPRPYTDPRP,-0.339
21,RRIRVRPPRLPRPRPRPYVAPRP,-0.643
